Test results as given in the supplement of paper PMC10567573.

B1: HSP90AB1 (parent)
chain: EADKNDKAVKDLVVLLFETALLSS

Variants of: B1
Test: protein stability index of a GFP-peptide fusion (GPS, HEK-293T) (PSI 1-6); higher = more stable
Details: c terminus: a fixed tail appended
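Further: lentivirally expressed fusions sorted by FACS into six bins by GFP to DsRed ratio, PSI derived from sequencing read proportions per bin multiplied by bin number.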

Row | Variant | protein stability index
1 | EADCNDKAVKDLVVLLFETALLSS [K4C] | 1.87
2 | EADSNDKAVKDLVVLLFETALLSS [K4S] | 1.8
3 | EADFNDKAVKDLVVLLFETALLSS [K4F] | 2.21
4 | EAQKNDKAVKDLVVLLFETALLSS [D3Q] | 1.82
5 | EASKNDKAVKDLVVLLFETALLSS [D3S] | 2.65
6 | EAYKNDKAVKDLVVLLFETALLSS [D3Y] | 2.46
7 | EAHKNDKAVKDLVVLLFETALLSS [D3H] | 1.98
8 | EAEKNDKAVKDLVVLLFETALLSS [D3E] | 1.65
9 | EAGKNDKAVKDLVVLLFETALLSS [D3G] | 1.58
10 | EAVKNDKAVKDLVVLLFETALLSS [D3V] | 2.02
11 | EAKKNDKAVKDLVVLLFETALLSS [D3K] | 1.58
12 | EAFKNDKAVKDLVVLLFETALLSS [D3F] | 3.79
13 | EAIKNDKAVKDLVVLLFETALLSS [D3I] | 1.9
14 | EANKNDKAVKDLVVLLFETALLSS [D3N] | 2.13
15 | EALKNDKAVKDLVVLLFETALLSS [D3L] | 1.86
16 | EAPKNDKAVKDLVVLLFETALLSS [D3P] | 2.47
17 | EAAKNDKAVKDLVVLLFETALLSS [D3A] | 2.57
18 | EAWKNDKAVKDLVVLLFETALLSS [D3W] | 1.86
19 | EACKNDKAVKDLVVLLFETALLSS [D3C] | 1.4
20 | EAMKNDKAVKDLVVLLFETALLSS [D3M] | 1.25
21 | EARKNDKAVKDLVVLLFETALLSS [D3R] | 1.9
22 | EATKNDKAVKDLVVLLFETALLSS [D3T] | 1.65
23 | EADKNDAAVKDLVVLLFETALLSS [K7A] | 1.95
24 | EADKNDCAVKDLVVLLFETALLSS [K7C] | 1.44

Row | Variant | protein stability index
25 | EADKNCKAVKDLVVLLFETALLSS [D6C] | 2.48
26 | EADKNQKAVKDLVVLLFETALLSS [D6Q] | 2.2
27 | EADKNTKAVKDLVVLLFETALLSS [D6T] | 1.42
28 | EADKNWKAVKDLVVLLFETALLSS [D6W] | 1.69
29 | EADKNRKAVKDLVVLLFETALLSS [D6R] | 1.73
30 | EADKNHKAVKDLVVLLFETALLSS [D6H] | 2.6
31 | EADKNIKAVKDLVVLLFETALLSS [D6I] | 3.48
32 | EADKNNKAVKDLVVLLFETALLSS [D6N] | 1.9
33 | EADKNFKAVKDLVVLLFETALLSS [D6F] | 3.2
34 | EADKNGKAVKDLVVLLFETALLSS [D6G] | 1.85
35 | EADKNMKAVKDLVVLLFETALLSS [D6M] | 2.64
36 | EADKNVKAVKDLVVLLFETALLSS [D6V] | 1.9
37 | EADKNKKAVKDLVVLLFETALLSS [D6K] | 1.28
38 | EADKNEKAVKDLVVLLFETALLSS [D6E] | 1.63
39 | EADKNYKAVKDLVVLLFETALLSS [D6Y] | 1.69
40 | EADKNLKAVKDLVVLLFETALLSS [D6L] | 2.27
41 | EADKNAKAVKDLVVLLFETALLSS [D6A] | 2.51
42 | EADKTDKAVKDLVVLLFETALLSS [N5T] | 2.43
43 | EADKWDKAVKDLVVLLFETALLSS [N5W] | 2.28
44 | EADKHDKAVKDLVVLLFETALLSS [N5H] | 1.68
45 | EADKRDKAVKDLVVLLFETALLSS [N5R] | 1.63
46 | EADKMDKAVKDLVVLLFETALLSS [N5M] | 2.27
47 | EADKEDKAVKDLVVLLFETALLSS [N5E] | 2.06
48 | EADKADKAVKDLVVLLFETALLSS [N5A] | 2.57

Row | Variant | protein stability index
49 | EADKVDKAVKDLVVLLFETALLSS [N5V] | 1.93
50 | EADKQDKAVKDLVVLLFETALLSS [N5Q] | 1.8
51 | EADKFDKAVKDLVVLLFETALLSS [N5F] | 1.64
52 | EADKGDKAVKDLVVLLFETALLSS [N5G] | 1.67
53 | EADKLDKAVKDLVVLLFETALLSS [N5L] | 1.99
54 | EADKPDKAVKDLVVLLFETALLSS [N5P] | 1.59
55 | EADKYDKAVKDLVVLLFETALLSS [N5Y] | 1.83
56 | EADKKDKAVKDLVVLLFETALLSS [N5K] | 2.35
57 | EADKIDKAVKDLVVLLFETALLSS [N5I] | 1.9
58 | EADKSDKAVKDLVVLLFETALLSS [N5S] | 2
59 | EDDKNDKAVKDLVVLLFETALLSS [A2D] | 2.04
60 | EIDKNDKAVKDLVVLLFETALLSS [A2I] | 1.73
61 | ENDKNDKAVKDLVVLLFETALLSS [A2N] | 2.11
62 | ECDKNDKAVKDLVVLLFETALLSS [A2C] | 1.74
63 | EKDKNDKAVKDLVVLLFETALLSS [A2K] | 1.68
64 | EQDKNDKAVKDLVVLLFETALLSS [A2Q] | 1.54
65 | EWDKNDKAVKDLVVLLFETALLSS [A2W] | 1.92
66 | ESDKNDKAVKDLVVLLFETALLSS [A2S] | 1.77
67 | EVDKNDKAVKDLVVLLFETALLSS [A2V] | 2.1
68 | ELDKNDKAVKDLVVLLFETALLSS [A2L] | 1.68
69 | EYDKNDKAVKDLVVLLFETALLSS [A2Y] | 1.73
70 | EGDKNDKAVKDLVVLLFETALLSS [A2G] | 1.33
71 | EPDKNDKAVKDLVVLLFETALLSS [A2P] | 1.79
72 | EHDKNDKAVKDLVVLLFETALLSS [A2H] | 2.1

Row | Variant | protein stability index
73 | ETDKNDKAVKDLVVLLFETALLSS [A2T] | 2.15
74 | ERDKNDKAVKDLVVLLFETALLSS [A2R] | 2.26
75 | EFDKNDKAVKDLVVLLFETALLSS [A2F] | 2.04
76 | EMDKNDKAVKDLVVLLFETALLSS [A2M] | 1.67
77 | PADKNDKAVKDLVVLLFETALLSS [E1P] | 1.95
78 | FADKNDKAVKDLVVLLFETALLSS [E1F] | 1.36
79 | RADKNDKAVKDLVVLLFETALLSS [E1R] | 1.69
80 | CADKNDKAVKDLVVLLFETALLSS [E1C] | 1.88
81 | GADKNDKAVKDLVVLLFETALLSS [E1G] | 2.37
82 | DADKNDKAVKDLVVLLFETALLSS [E1D] | 1.86
83 | AADKNDKAVKDLVVLLFETALLSS [E1A] | 1.45
84 | LADKNDKAVKDLVVLLFETALLSS [E1L] | 2.02
85 | KADKNDKAVKDLVVLLFETALLSS [E1K] | 1.61
86 | QADKNDKAVKDLVVLLFETALLSS [E1Q] | 1.87
87 | MADKNDKAVKDLVVLLFETALLSS [E1M] | 2.69
88 | NADKNDKAVKDLVVLLFETALLSS [E1N] | 1.89
89 | SADKNDKAVKDLVVLLFETALLSS [E1S] | 1.78
90 | IADKNDKAVKDLVVLLFETALLSS [E1I] | 2.56
91 | WADKNDKAVKDLVVLLFETALLSS [E1W] | 2.3
92 | HADKNDKAVKDLVVLLFETALLSS [E1H] | 1.94
93 | VADKNDKAVKDLVVLLFETALLSS [E1V] | 2.54
94 | TADKNDKAVKDLVVLLFETALLSS [E1T] | 2.58
